For the experiment, the system named is human fetal brain-derived neural stem cells (hNSC). Description: hNSC growth on ephrin-ligand repulsive substrates. It is filed as cell-based. To be noted: for substrate effect on neuronal cell growth: laminin-coated surfaces containing pre-clustered efn ligand. The method, then: Fetal brain-derived neural stem cells (hNSC): In order to evaluate the effect of xEFN peptides on human neuronal cells, StemPro hNSC were purchased from ThermoFisher Scientific (Cat. no. A15654) and cultured according to the manufacturer's recommended protocol. Briefly, cells were grown in non-adherent neurosphere suspension cultures in StemPro NSC serum-free media (NSC-SFM) (Cat. no. A10509-01) supplemented with 2 mM GlutaMAX-I supplement, 6 U/mL heparin, and 200 μM ascorbic acid (Sigma-Aldrich, Cat. no. A8960). Culture media was changed every 2 days and cells were passaged every 7 days as undifferentiated hNSC. To induce differentiation into neuronal cells, hNSC neurospheres were dissociated into single-cell suspensions using StemPro Accutase for 5 minutes at 37° C. followed by mechanical pipetting. hNSC were then plated onto Geltrex-coated culture vessels at a concentration of 2×10^4 cells/cm^2 in neuronal differentiation media consisting of NSC media without bFGF or EGF and supplemented with B-27 supplement (ThermoFisher Scientific) for 3 days prior to performing further in vitro assays.
Glial-bound efn ligands have been associated with mediating the major repulsive milieu for neuronal process in the CNS. […] Moreover, assays on the repulsive nature of efn ligand-presenting surfaces have been a mainstay in axonal guidance studies for many decade. The use of xEFN peptides to antagonize this repulsive signaling from efn ligand substrates was evaluated on human fetal brain-derived neural stem cells (hNSC).
Recombinant Efn ligands (A2, A4, and B3) containing a His-Tag were purchased from R&D Systems, and were pre-clustered using an anti-His antibody (Genetex) for 30 min. The pre-clustered Efn ligands, or anti-his antibody alone, (control) were then mixed with laminin from human placenta (Sigma-Aldrich) in suspension and used to coat the growth surface of a 24-well plate. […] The entire wells were then scanned using an EVOS FL Auto fluorescent microscope and the images were analyzed in the ImageJ software to calculate cell coverage area.

B1: efnB3: recombinant Efn ligand containing a His-Tag (R&D Systems), pre-clustered with anti-His antibody (protein, UniProt Q15768 28-226, looked up)
extracellular domain: LSLEPVYWNSANKRFQAEGGYVLYPQIGDRLDLLCPRARPPGPHSSPNYEFYKLYLVGGAQGRRCEAPPAPNLLLTCDRPDLDLRFTIKFQEYSPNLWGHEFRSHHDYYIIATSDGTREGLESLQGGVCLTRGMKVLLRVGQSPRGGAVPRKPVSEMPMERDRGAAHSLEPGKENLPGDPTSNATSRGAEGPLPPPSMP
modifications: extracellular domain His tag, pre-clustered
notes: recombinant Efn ligand containing a His-Tag (R&D Systems), pre-clustered with anti-His antibody
On to B1, for which the “substrate effect on neuronal cell growth” value is given as “highly repulsive substrates”. Besides, the “hNSC confluence on pre-clustered efn ligand substrate” value (no peptide, compared to the laminin-only control confluence) is 44.61+/−1.61%.

B2: efnB1: pre-clustered ephrin ligand on laminin-coated surface (protein, UniProt P98172 28-346, looked up)
Ephrin-B1: LAKNLEPVSWSSLNPKFLSGKGLVIYPKIGDKLDIICPRAEAGRPYEYYKLYLVRPEQAAACSTVLDPNVLVTCNRPEQEIRFTIKFQEFSPNYMGLEFKKHHDYYITSTSNGSLEGLENREGGVCRTRTMKIIMKVGQDPNAVTPEQLTTSRPSKEADNTVKMATQAPGSRGSLGDSDGKHETVNQEEKSGPGASGGSSGDPDGFFNSKVALFAAVGAGCVIFLLIIIFLTVLLLKLRKRHRKHTQQRAAALSLSTLASPKGGSGTAGTEPSDIIIPLRTTENNYCPHYEKVSGDYGHPVYIVQEMPPQSPANIYYKV
modifications: pre-clustered
notes: pre-clustered ephrin ligand on laminin-coated surface
With B2, the “substrate effect on neuronal cell growth” value is given as “highly repulsive substrates”.

For the origin of these results see patent US20250042968A1, “EPHRIN LIGAND MIMETIC PEPTIDES FOR THE TREATMENT OF NEURODEGENERATIVE DISEASES” (University of Miami, priority 2022, published 2025).
